Tested on: N#CCNC(=O)c1cnccc1C(F)(F)F
Test: purified protein
Details: 37 °C, 10 min, pH of kinetics not stated, hydration to TFNG-AM

Substance | Km [mM] | Vmax [µmol/min/mg]
CnhA (Ensifer adhaerens) | 5.07 | 9.55
PnhA (Ensifer adhaerens) | 2.96 | 88.7

Reference: paper PMC8278588, “Biodegradation of flonicamid by Ensifer adhaerens CGMCC 6315 and enzymatic characterization of the nitrile hydratases involved” (Microbial Cell Factories, 2021)
